Laboratory results: patent US20260125468A1 (NONA BIOSCIENCES SUZHOU, published 2026)

Key:
[1] = target: T1, CD3 on human T cells (human PBMCs or isolated T cells used as effector cells) (human, UniProt P07766 23-207; P04234 22-171; P09693 23-182); test: cell-based or functional assay
[2] = target: T1, CD3 on human T cells (human PBMCs or …); test: cell-based or functional assay; remark: listed apart in the source
[3] = target: T2, CD3/TCR complex on Jurkat cells (ATCC, TIB-152) and Jurkat-NFAT-Luc reporter cells (human, UniProt P07766 23-207; P04234 22-171; P09693 23-182; P20963 22-164); test: FACS on Jurkat cells, purified antibody [A]
T2 construct: whole, on cells; also called CD3/TCR-positive Jurkat cells; TCR/CD3 complex
T2 sequence (P09693 23-182, chain 3 of 2): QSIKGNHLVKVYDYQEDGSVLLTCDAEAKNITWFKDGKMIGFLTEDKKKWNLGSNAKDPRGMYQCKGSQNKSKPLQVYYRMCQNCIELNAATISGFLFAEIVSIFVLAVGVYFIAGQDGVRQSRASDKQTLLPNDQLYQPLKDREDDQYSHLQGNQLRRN
T2 sequence (P20963 22-164, chain 4 of 2): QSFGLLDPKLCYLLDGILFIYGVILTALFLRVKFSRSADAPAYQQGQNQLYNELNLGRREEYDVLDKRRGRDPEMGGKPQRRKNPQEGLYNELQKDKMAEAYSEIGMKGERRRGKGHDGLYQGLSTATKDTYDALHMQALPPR
Method: The binding activities to target cells for the supernatants A1-monoFc (PR005860) and E2-monoFc (PR005861) were evaluated by FACS. The supernatants of the recombinant antibodies (i.e. A1-monoFc, E2-monoFc) were diluted from bulk solution to 8 different concentrations by 3-fold serial dilution. […] The cells were washed twice with staining buffer and subjected to flow cytometry. The data were processed by FlowJo v10 (FlowJo, LLC) and non-linear curve fitting analyzed by GraphPad Prism 8.
The binding activities to Jurkat and J.RT3-T3.5 cells for purified A1-HCAb (PR006364), E2-HCAb (PR006365) were determined by FACS, following the method described in Example 2. As shown in (A) and (B of FIG. 8, PR006364 and PR006365 can bind to Jurkat cells but not to J.RT3-T3.5 cells, which is consistent with the result in FIG. 1.

[4] = target: human CD3E&D heterodimer protein (construct not specified; FIG. 9A and FIG. 12) (human, UniProt P07766 23-126; P04234 22-105); test: ELISA on coated human CD3e&d heterodimer protein (construct not named on the sheet)
human CD3E&D heterodimer protein (construct not specified; FIG. 9A and FIG. 12), sequence (P07766 23-126, chain 1 of 2): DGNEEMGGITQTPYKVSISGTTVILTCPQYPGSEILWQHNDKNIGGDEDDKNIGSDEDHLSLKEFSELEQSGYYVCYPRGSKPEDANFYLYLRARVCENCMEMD
human CD3E&D heterodimer protein (construct not specified; FIG. 9A and FIG. 12), sequence (P04234 22-105, chain 2 of 2): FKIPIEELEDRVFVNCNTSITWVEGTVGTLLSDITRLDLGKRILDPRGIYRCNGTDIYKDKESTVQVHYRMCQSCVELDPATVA

[5] = target: T3, Biotinylated human CD3e&d protein (Acro Biosystems, CDD-H82W6) (human, UniProt P07766 23-126; P04234 22-105, biotinylated protein; chain and site not stated); test: BLI (Octet RED96e), biotinylated antigen on SA biosensors, antibody 0.375-12 nM
T3 construct: Bought protein loaded on SA Octet biosensors; also called human CD3 protein
T3 sequence (P07766 23-126, chain 1 of 2): as the sequence (P07766 23-126, chain 1 of 2) above
T3 sequence (P04234 22-105, chain 2 of 2): as the sequence (P04234 22-105, chain 2 of 2) above
Method: To determine the binding affinities of anti-CD3 antibodies to human or cynomolgus monkey CD3e&d heterodimer proteins, bio-layer interferometry (BLI) assays were carried out by using Octet® RED96e.
Biotinylated human CD3e&d protein (Acro Biosystems, CDD-H82W6) or biotinylated cynomolgus CD3e&d protein (Acro Biosystems, CDD-C82W6) was first loaded onto the surface of SA Octet biosensors (Sartorius, 18-5019) to reach capture levels between 0.5-0.8 nm. The loaded biosensors were then dipped in wells containing 2-fold serial dilutions of testing antibodies to detect association signals, followed by dissociation steps in wells containing kinetic buffer. The association phase was 180 seconds, and the dissociation phase was 900 seconds. The sensorgrams were recorded, and the reference signals were subtracted before curve fitting using ForteBio Data Analysis 11.0 software. Association rates (kon) and dissociation rates (koff) were calculated using a simple one-to-one Langmuir binding model. The equilibrium dissociation constant (KD) was calculated as the ratio of koff/kon.

[6] = target: T4, cynoCD3e&d-his, Cynomolgus CD3 epsilon & CD3 delta Heterodimer Protein (Acro Biosystems, CDD-C52W4) (Cynomolgus, UniProt Q95LI5 22-117; Q95LI8 22-105); test: ELISA, plate coated with cyno CD3e&d-his at 1 µg/mL, anti-human IgG Fc-HRP [C]
T4 construct: Bought protein; also called cynomolgus CD3E&D heterodimer protein; not shown: His Tag fused to C-terminus of CD3 epsilon chain; Flag Tag fused to C-terminus of CD3 delta chain
T4 sequence (Q95LI5 22-117, stated change not applied, chain 1 of 2): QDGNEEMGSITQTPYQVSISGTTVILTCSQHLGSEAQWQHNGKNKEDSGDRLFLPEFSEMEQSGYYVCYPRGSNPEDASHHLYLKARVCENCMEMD
T4 sequence (Q95LI8 22-105, stated change not applied, chain 2 of 2): as the sequence (P04234 22-105, chain 2 of 2) above, with I5V, N15K, I20V, S32T, D33N, I34N, T64A, S74N, V83L counted along it
Method: (§1) ELISA assays were conducted as briefly described: CD3 proteins were coated onto ELISA plates at 1 μg/mL; testing antibodies OKT3 and PR006364 (A1-HCAb) were diluted from 2 μg/mL to 8 different concentrations by 3-fold serial dilution, or testing antibodies PR006370 (SP34) and PR010991 (3G11-HCAb) were diluted from 100 nM to 11 different concentrations by 2-fold serial dilution; secondary antibody (anti-human IgG Fc-HRP) was used to detect PR006364, PR006370 and PR010991, and secondary antibody (anti-mouse IgG Fc-HRP) was used to detect OKT3 binding signal. The absorption signal at 450 nm (OD450) was recorded by plate reader (Molecular Devices, SpectraMax), and the data were processed and non-linear curve fitting analyzed by GraphPad Prism 8.

[7] = target: T5, hCD3e&d-his, Human CD3 epsilon & CD3 delta Heterodimer Protein with His Tag (Acro Biosystems, CDD-H52W1) (Human, UniProt P07766 23-126; P04234 22-105); test: ELISA, plate coated with human CD3e&d-his at 1 µg/mL, anti-human IgG Fc-HRP [B]
T5 construct: Bought protein; also called human CD3E&D heterodimer protein; not shown: His Tag fused to C-terminus of CD3 epsilon chain
T5 sequence (P07766 23-126, stated change not applied, chain 1 of 2): as the sequence (P07766 23-126, chain 1 of 2) above
T5 sequence (P04234 22-105, stated change not applied, chain 2 of 2): as the sequence (P04234 22-105, chain 2 of 2) above
Method: as §1

[8] = target: T6, hCD3e&g-his, Human CD3 epsilon & CD3 gamma Heterodimer Protein with His Tag (Acro Biosystems, CDG-H52W5) (Human, UniProt P07766 23-126; P09693 23-116); test: ELISA, plate coated with human CD3e&g-his at 1 µg/mL, anti-human IgG Fc-HRP [D]
T6 construct: Bought protein; also called human CD3E&G heterodimer protein; not shown: His Tag fused to C-terminus of CD3 epsilon chain
T6 sequence (P07766 23-126, chain 1 of 2): as the sequence (P07766 23-126, chain 1 of 2) above
T6 sequence (P09693 23-116, chain 2 of 2): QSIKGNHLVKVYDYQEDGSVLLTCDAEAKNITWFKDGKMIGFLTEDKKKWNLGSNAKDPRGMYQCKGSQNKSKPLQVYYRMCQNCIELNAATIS
Method: as §1

[9] = target: T7, hCD3e-his, Human CD3 epsilon Protein with His Tag (Acro Biosystems, CDE-H5223) (Human, UniProt P07766 23-126); test: ELISA, plate coated with human CD3e-his at 1 µg/mL, anti-human IgG Fc-HRP [E]
T7 construct: Bought protein; also called human CD3E monomeric protein; monomeric CD3E; not shown: His Tag
T7 sequence (P07766 23-126 limits assumed): as the sequence (P07766 23-126, chain 1 of 2) above
Method: as §1

T1 sequence (P07766 23-207, chain 1 of 3): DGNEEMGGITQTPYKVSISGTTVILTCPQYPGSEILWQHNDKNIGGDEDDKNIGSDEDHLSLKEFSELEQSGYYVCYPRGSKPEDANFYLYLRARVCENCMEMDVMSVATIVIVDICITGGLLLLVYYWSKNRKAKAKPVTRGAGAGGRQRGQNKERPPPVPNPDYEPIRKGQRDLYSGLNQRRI
T1 sequence (P04234 22-171, chain 2 of 3): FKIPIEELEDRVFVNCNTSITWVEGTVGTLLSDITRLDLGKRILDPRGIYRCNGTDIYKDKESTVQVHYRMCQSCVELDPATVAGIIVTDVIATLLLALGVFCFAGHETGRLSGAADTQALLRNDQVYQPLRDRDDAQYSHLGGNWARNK
T1 sequence (P09693 23-182, chain 3 of 3): as the sequence (P09693 23-182, chain 3 of 2) above

B1: PR006002, anti-B7H4xCD3 VH(A1)-Fc-scFv(PR003366), hIgG1(dCH1, KiH, LALA) (bispecific antibody)
chain 1: not shown
chain 2: EIVMTQSPASLSVSPGERATLSCRASQSVSSNLAWYQQKPGQAPRLLIYGASTRATGIPARVSGGGSGTEFTLTISSLQSEDFAVYYCQQYKNWPFTFGPGTKLEIKGGGGSGGGGSGGGGSGGGGSQVQLVQSGAEVKKPGSSMRVSCKASEDTFSSYAISWVRQAPGQGLEWMGGTAPIFGTTNYAQKFQGRVTITADKSTSTAYMELSSLRSEDTAVYYCARGGPYFDYWGQGTLVTVSSASEPKSSDKTHTCPPCPAPEAAGGPSVFLFPPKPKDTLMISRTPEVTCVVVDVSHEDPEVKFNWYVDGVEVHNAKTKPREEQYNSTYRVVSVLTVLHQDWLNGKEYKCKVSNKALPAPIEKTISKAKGQPREPQVCTLPPSREEMTKNQVSLSCAVKGFYPSDIAVEWESNGQPENNYKTTPPVLDSDGSFFLVSKLTVDKSRWQQGNVFSCSVMHEALHNHYTQKSLSLSPGK
For B1, the “EC50 of T cell-mediated cytotoxicity to MDA-MB-468 (RTCA)” value [1] was 0.033 nM, the “Max cytotoxicity (%) of T cell-mediated cytotoxicity to MDA-MB-468 (RTCA)” value [1] was 94.4% and the “EC50 of T cell-mediated cytotoxicity to MDA-MB-468 (RTCA, human T cells, E:T 10:1)” value [2] was 0.00111 nM.

B2: PR010987, anti-B7H4xCD3 S140-Fc-scFv(PR003366), hIgG1(dCH1, KIH, AAA) (bispecific antibody)
chain 1: EVQLVESGGGLVQPGGSLRLSCAASGRTSGIPAMAWFRQAPGKGLEWVAMAWSGGGTIYADSVKGRFTISRDNSKNTLYLQMNSLRAEDTAVYYCARGRSTSNRADQYNYWGQGTLVTVSSASEPKSSDKTHTCPPCPAPEAAGAPSVFLFPPKPKDTLMISRTPEVTCVVVDVSHEDPEVKFNWYVDGVEVHNAKTKPREEQYNSTYRVVSVLTVLHQDWLNGKEYKCKVSNKALPAPIEKTISKAKGQPREPQVYTLPPCREEMTKNQVSLWCLVKGFYPSDIAVEWESNGQPENNYKTTPPVLDSDGSFFLYSKLTVDKSRWQQGNVFSCSVMHEALHNHYTQKSLSLSPGK
chain 2: EIVMTQSPASLSVSPGERATLSCRASQSVSSNLAWYQQKPGQAPRLLIYGASTRATGIPARVSGGGSGTEFTLTISSLQSEDFAVYYCQQYKNWPFTFGPGTKLEIKGGGGSGGGGSGGGGSGGGGSQVQLVQSGAEVKKPGSSMRVSCKASEDTFSSYAISWVRQAPGQGLEWMGGTAPIFGTTNYAQKFQGRVTITADKSTSTAYMELSSLRSEDTAVYYCARGGPYFDYWGQGTLVTVSSASEPKSSDKTHTCPPCPAPEAAGAPSVFLFPPKPKDTLMISRTPEVTCVVVDVSHEDPEVKFNWYVDGVEVHNAKTKPREEQYNSTYRVVSVLTVLHQDWLNGKEYKCKVSNKALPAPIEKTISKAKGQPREPQVCTLPPSREEMTKNQVSLSCAVKGFYPSDIAVEWESNGQPENNYKTTPPVLDSDGSFFLVSKLTVDKSRWQQGNVFSCSVMHEALHNHYTQKSLSLSPGK
B2 was tested, and the “EC50 of T cell-mediated cytotoxicity to MDA-MB-468 (RTCA, human T cells, E:T 10:1)” value [2] was 0.263 nM.

B3: PR006365, anti-CD3 E2-HCAb hIgG1(C220S, AAG) (antibody, V domains shown)
VH: EVQLVESGGGLVQAGGSLRLSCAASGRTNGIPAMAWFRQAPGKEREFVAMAWSGGGTIYGDSVKNRFTISRNNAQNTISLQMSSLRPEDTALYFCAAGRTTSNKADHYNYWGQGTQVTVSS
notes: Heavy-chain-only antibody, human IgG1 Fc (C220S, L234A, L235A, P329G)
In the case of B3, the “EC50 (read off the curve)” value [3] is reported as about 9 nM.

B4: PR011628, anti-CD3 S135 HCAb hIgG1(C220S,AAG) (antibody, V domains shown)
VH: EVQLLESGGGLVQPGGSLRLSCAASGRTSGIPAMSWVRQAPGKGLEWVAMAWSGGGTIYADSVKGRFTISRDNSKNTLYLQMNSLRAEDTAVYYCAAGRSTSNRADQYNYWGQGTLVTVSS
notes: Humanized variant of PR006364; heavy-chain-only antibody
B4: binds [4].

B5: PR011630, anti-CD3 S137 HCAb hIgG1(C220S,AAG) (antibody, V domains shown)
VH: EVQLLESGGGLVQPGGSLRLSCAASGRTSGIPAMSWVRQAPGKEREFVAMAWSGGGTIYADSVKGRFTISRDNSKNTLYLQMNSLRAEDTAVYYCAAGRSTSNYADQYNYWGQGTQVTVSS
notes: as for B4
B5: binds [4].

B6: PR011629, anti-CD3 S136 HCAb hIgG1(C220S,AAG) (antibody, V domains shown)
VH: EVQLLESGGGLVQPGGSLRLSCAASGRTSGIPAMSWVRQAPGKEREFVAMAWSGGGTIYADSVKGRFTISRDNSKNTLYLQMNSLRAEDTAVYYCAAGRSTSNRADQYNYWGQGTQVTVSS
notes: as for B4
B6 gave a Kd [5] of 0.168 nM, a koff [5] of 0.00014 s⁻¹ and a kon [5] of 833000 M⁻¹ s⁻¹.

B7: PR011631, anti-CD3 S138 HCAb hIgG1(C220S,AAG) (antibody, V domains shown)
VH: EVQLLESGGGLVQPGGSLRLSCAASGRTSGIPAMSWVRQAPGKGLEWVAMAWSGGGTIYADSVKGRFTISRDNSKNTLYLQMNSLRAEDTAVYYCAAGRSTSNYADQYNYWGQGTLVTVSS
notes: as for B4
B7: binds [4].

B8: PR011632, anti-CD3 S140 HCAb hIgG1(C220S,AAG) (antibody, V domains shown)
VH: EVQLVESGGGLVQPGGSLRLSCAASGRTSGIPAMAWFRQAPGKGLEWVAMAWSGGGTIYADSVKGRFTISRDNSKNTLYLQMNSLRAEDTAVYYCARGRSTSNRADQYNYWGQGTLVTVSS
notes: as for B4
B8: binds [4].

B9: PR006370, anti-CD3 SP34 chimeric hIgG1(AAG) (antibody, V domains shown)
VH: EVQLVESGGGLVQPKGSLKLSCAASGFTFNTYAMNWVRQAPGKGLEWVARIRSKYNNYATYYADSVKDRFTISRDDSQSILYLQMNNLKTEDTAMYYCVRHGNFGNSYVSWFAYWGQGTLVTVSA
VL: QAVVTQESALTTSPGETVTLTCRSSTGAVTTSNYANWVQEKPDHLFTGLIGGTNKRAPGVPARFSGSLIGDKAALTITGAQTEDEAIYFCALWYSNLWVFGGGTKLTVLG
notes: Mouse/human chimeric antibody, human IgG1 Fc-silent variant (L234A, L235A, P329G)
For B9, the “EC50 (read off the curve)” value [6] was about 0.7 nM, the “EC50 (read off the curve)” value [7] was about 0.6 nM and the “EC50 (read off the curve)” value [8] was about 0.8 nM. The “EC50 (read off the curve)” value [9] was about 0.8 nM.
